Measurements reported in patent publication US20250277048A1 (Regeneron, published 2025).

Experiments:
[1] = target: T1, human CD40 extracellular domain expressed with a C-terminal myc-myc-hexahistidine tag (human); experiment: ELISA blocking of 40 nM hCD40-mmH binding to 9His-hCD40L
T1 construct: also called hCD40-MMH; hCD40-mmH
Source text: An ELISA-based blocking assay was developed to determine the ability of C40×CD40 bispecific antibodies to block the binding of the hCD40 monomer to plate-coated hCD40L. The recombinant human CD40-mmH protein (hCD40-MMH; REGN3094; SEQ ID NO: 53) used in the experiments comprises a portion of the human CD40 extracellular domain (amino acids P20-R193) fused to 2×Myc peptide and 6×histadine (SEQ ID NO: 1110) at the C-terminus of human CD40, and the human CD40L (accession #NM_000074.2) with amino acids E108-L261 of the extracellular domain with 9×His-2×(SGGG)-IGER at the N-terminus (9His-hCD40L) was commercially obtained from Biolegend.
In the blocking assay, 9His-hCD40L was passively absorbed at a concentration of 5 μg/mL in PBS on a 96-well microtiter plate overnight at 4° C. […] In a separate 96-well microtiter plate, a fixed amount of 40 nM hCD40-mmH was pre-mixed with one of the following antibodies, at concentrations ranging from 977 pM to 1 μM in PBS+0.5% BSA: (1) CD40×CD40 bispecific antibodies (REGN16431, REGN16432, REGN16634, and REGN16335); (2) parental CD40 mAbs (bivalent antibodies comprising 2 fragment antigen-binding [Fab] arms identical to one of anti-CD40 Fab of CD40×CD40 antibodies); (3) CD40×Irrelevant antibodies (bivalent antibodies that incorporate one Fab arm identical to one of anti-CD40 Fab of CD40×CD40 antibodies and another Fab arm specific to an irrelevant antigen); and (4) human IgG4 with Fc mutation isotype control antibodies (REGN7540 and REGN4513). The fixed concentration of hCD40-mmH was selected to be near the concentration (EC₅₀ value) that generated 50% of the maximal binding to the plate-adhered 9His-hCD40L. After one-hour incubation, the antibody-antigen complexes were transferred to the microtiter plate coated with 9His-hCD40L. After one hour incubation at room temperature, the plates were washed, and plate-bound hCD40-mmH protein was detected with horseradish peroxidase (HRP) conjugated goat anti-c-Myc antibody. The plates were then developed using TMB substrate solution (BD Biosciences) according to the manufacturer's recommended procedure and the absorbance at 450 nm (OD₄₅₀) was measured on a SpectraMax i3×plate reader.

[2] = target: T2, mouse CD40 extracellular domain expressed with a C-terminal myc-myc-hexahistidine tag (mouse); experiment: SPR Biacore 4000, mAb captured, 37C
T2 construct: also called mCD40-MMH; REGN3098
T2 chain: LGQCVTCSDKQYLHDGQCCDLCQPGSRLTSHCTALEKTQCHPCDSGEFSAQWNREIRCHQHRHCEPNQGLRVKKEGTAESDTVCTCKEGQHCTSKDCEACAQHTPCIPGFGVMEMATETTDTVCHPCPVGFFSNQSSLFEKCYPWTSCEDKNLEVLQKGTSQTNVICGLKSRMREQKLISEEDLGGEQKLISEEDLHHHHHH
Procedure: (§1) The equilibrium dissociation constants (KD) for anti-CD40 bivalent and bispecific monoclonal antibodies (mAbs) were determined using a real-time surface plasmon resonance (SPR)-based Biacore 4000 biosensor. All binding studies were performed in 10 mM HEPES, 150 mM NaCl, 3 mM EDTA, and 0.05% v/v surfactant Tween-20, pH 7.4 (HBS-ET) running buffer at 25° C. and 37° C. The Biacore CM5 sensor surface was first derivatized by amine coupling with a monoclonal mouse anti-human Fc antibody (REGN2567) to capture anti-CD40 bivalent parental and anti-CD40×CD40 bispecific antibodies. Different concentrations of CD40 reagents, human CD40 extracellular domain expressed with a C-terminal myc-myc-hexahistidine tag (SEQ ID NO: 1114) (“hCD40-MMH”; REGN3094; SEQ ID NO: 53), monkey CD40 extracellular domain expressed with a C-terminal myc-myc-hexahistidine tag (SEQ ID NO: 1114) (“mfCD40-MMH”; REGN3097; SEQ ID NO: 54), and mouse CD40 extracellular domain expressed with a C-terminal myc-myc-hexahistidine tag (SEQ ID NO: 1114) (“mCD40-MMH”; REGN3098; SEQ ID NO: 55), at concentrations ranging from 3.7 nM to 100 nM or 3.3 nM to 90 nM in a series of 3-fold dilutions prepared in HBS-ET running buffer were injected at a flow rate of 30 μL/min for 4 minutes or 50 μL/min for 5 minutes. The dissociation of different CD40 reagents bound to anti-CD40 bivalent parental and anti-CD40×CD40 bispecific antibodies was monitored for 10 minutes in HBS-ET running buffer. At the end of each cycle, the anti-CD40 bivalent parental and anti-CD40×CD40 bispecific antibodies capture surface was regenerated using a 12 sec injection of 20 mM H₃PO₄.
(§2) The association rate (ka) and dissociation rate (kd) were determined by fitting the real-time binding sensorgrams to a 1:1 binding model with mass transport limitation using Scrubber 2.0c curve-fitting software. Binding dissociation equilibrium constant (KD) and dissociative half-life (t_{1/2}) were calculated from the kinetic rates as: KD(M)=kd/kₐ, and t_{1/2} (min)=[ln(2)/(60*kd)].

[3] = target: T1, human CD40 extracellular domain …; experiment: SPR Biacore 4000, mAb captured, 37C
Procedure: as §1, §2

B1: 21520P2 (antibody, human IgG4 S228P, kappa, V domains shown)
VH: EVQLVESGGGLVQPGGSLRLSCAASGFTFGSYGMAWVRQAPGKGLEWVSAISGSGDYTNYADSVKRRFTISRDNSKNTLYLQMSSLRAEDTAVYYCAKEKTGTTGYLYSGMDVWGQGTTVTVSS
VL: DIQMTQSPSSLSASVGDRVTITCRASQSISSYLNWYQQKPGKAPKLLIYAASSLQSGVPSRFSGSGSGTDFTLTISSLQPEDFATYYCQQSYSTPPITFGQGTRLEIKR
notes: parental bivalent anti-CD40 mAb; common light chain; also called H4sH21520P2
[1]
  % Blocking at 1 uM mAb: 94%
  IC50: 62 nM
[2]
  100 nM Ag Bound: 0.2 RU
[3]
  100 nM Ag Bound: 67.2 RU
  Kd: 69.9 nM
  koff: 0.0803 s⁻¹
  kon: 1.15e+06 M⁻¹ s⁻¹
  t1/2: 0.1 min

B2: 30027P2 (antibody, human IgG4 S228P, kappa, V domains shown)
VH: EVQLVESGGGLVQPGGSLRLSCAASGFTFSSYAMNWVRQAPGKGLEWVSIISGTIGKTYYADSVKGRFTISRDNSKNTLYLQMNSLRGEDTAVYYCAKDTERDITGSPFDYWGQGTLVTVSS
VL: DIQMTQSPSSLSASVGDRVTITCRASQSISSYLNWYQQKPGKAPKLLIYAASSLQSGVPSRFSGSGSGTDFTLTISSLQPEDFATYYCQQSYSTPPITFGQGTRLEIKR
notes: parental bivalent anti-CD40 mAb; common light chain; also called H4sH30027P2
[1]
  % Blocking at 1 uM mAb: 10%
[2]
  100 nM Ag Bound: 0.2 RU
[3]
  100 nM Ag Bound: 66.5 RU
  Kd: 6 nM
  koff: 0.00372 s⁻¹
  kon: 620000 M⁻¹ s⁻¹
  t1/2: 3.1 min

B3: 21519P2 (antibody, human IgG4 S228P, kappa, V domains shown)
VH: QLQLQESGPGLVRPSETLSLTCSVSGASMNTNNYYWGWIRQPPGKGLEWIGSGYYNGNTYYNPSLKSRVTISVDTSKNQFSLKLNSVTAADTAVYYCARQTPPRIIGSPNIWGQGTMVTVSS
VL: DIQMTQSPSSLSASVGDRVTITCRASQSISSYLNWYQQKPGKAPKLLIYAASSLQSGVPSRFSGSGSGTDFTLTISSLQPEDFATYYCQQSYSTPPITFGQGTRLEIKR
notes: parental bivalent anti-CD40 mAb; common light chain; also called H4sH21519P2
[1]
  % Blocking at 1 uM mAb: 94%
  IC50: 61 nM
[2]
  100 nM Ag Bound: 1.6 RU
[3]
  100 nM Ag Bound: 105 RU
  Kd: 19.4 nM
  koff: 0.0123 s⁻¹
  kon: 635000 M⁻¹ s⁻¹
  t1/2: 0.9 min

B4: REGN16431 (bispecific antibody, human IgG4 S228P, kappa)
heavy 1: QLQLQESGPGLVRPSETLSLTCSVSGASMNTNNYYWGWIRQPPGKGLEWIGSGYYNGNTYYNPSLKSRVTISVDTSKNQFSLKLNSVTAADTAVYYCARQTPPRIIGSPNIWGQGTMVTVSSASTKGPSVFPLAPCSRSTSESTAALGCLVKDYFPEPVTVSWNSGALTSGVHTFPAVLQSSGLYSLSSVVTVPSSSLGTKTYTCNVDHKPSNTKVDKRVESKYGPPCPPCPAPPVAGPSVFLFPPKPKDTLMISRTPEVTCVVVDVSQEDPEVQFNWYVDGVEVHNAKTKPREEQFNSTYRVVSVLTVLHQDWLNGKEYKCKVSNKGLPSSIEKTISKAKGQPREPQVYTLPPSQEEMTKNQVSLTCLVKGFYPSDIAVEWESNGQPENNYKTTPPVLDSDGSFFLYSRLTVDKSRWQEGNVFSCSVMHEALHNHYTQKSLSLSLGK
heavy 2: EVQLVESGGGLVQPGGSLRLSCAASGFTFGSYGMAWVRQAPGKGLEWVSAISGSGDYTNYADSVKRRFTISRDNSKNTLYLQMSSLRAEDTAVYYCAKEKTGTTGYLYSGMDVWGQGTTVTVSSASTKGPSVFPLAPCSRSTSESTAALGCLVKDYFPEPVTVSWNSGALTSGVHTFPAVLQSSGLYSLSSVVTVPSSSLGTKTYTCNVDHKPSNTKVDKRVESKYGPPCPPCPAPPVAGPSVFLFPPKPKDTLMISRTPEVTCVVVDVSQEDPEVQFNWYVDGVEVHNAKTKPREEQFNSTYRVVSVLTVLHQDWLNGKEYKCKVSNKGLPSSIEKTISKAKGQPREPQVYTLPPSQEEMTKNQVSLTCLVKGFYPSDIAVEWESNGQPENNYKTTPPVLDSDGSFFLYSRLTVDKSRWQEGNVFSCSVMHEALHNRFTQKSLSLSPGK
light: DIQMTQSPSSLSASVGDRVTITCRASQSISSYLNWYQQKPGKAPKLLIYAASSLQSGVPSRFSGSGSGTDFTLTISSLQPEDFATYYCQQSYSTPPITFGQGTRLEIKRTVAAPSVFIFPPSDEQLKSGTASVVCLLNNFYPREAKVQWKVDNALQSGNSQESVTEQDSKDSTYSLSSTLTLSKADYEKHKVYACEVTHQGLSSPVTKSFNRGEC
notes: D1 arm from 21519P2, D2 arm from 21520P2, common light chain; also called CD40xCD40 (21519 x 21520)
[1]
  % Blocking at 1 uM mAb: 93%
  IC50: 33 nM
[3]
  100 nM Ag Bound: 61.2 RU
  Kd: 0.101 nM
  koff: 0.000149 s⁻¹
  kon: 1.47e+06 M⁻¹ s⁻¹
  t1/2: 77.5 min

B5: REGN16432 (bispecific antibody, human IgG4 S228P, kappa)
heavy 1: EVQLVESGGGLVQPGGSLRLSCAASGFTFSSYAMNWVRQAPGKGLEWVSIISGTIGKTYYADSVKGRFTISRDNSKNTLYLQMNSLRGEDTAVYYCAKDTERDITGSPFDYWGQGTLVTVSSASTKGPSVFPLAPCSRSTSESTAALGCLVKDYFPEPVTVSWNSGALTSGVHTFPAVLQSSGLYSLSSVVTVPSSSLGTKTYTCNVDHKPSNTKVDKRVESKYGPPCPPCPAPPVAGPSVFLFPPKPKDTLMISRTPEVTCVVVDVSQEDPEVQFNWYVDGVEVHNAKTKPREEQFNSTYRVVSVLTVLHQDWLNGKEYKCKVSNKGLPSSIEKTISKAKGQPREPQVYTLPPSQEEMTKNQVSLTCLVKGFYPSDIAVEWESNGQPENNYKTTPPVLDSDGSFFLYSRLTVDKSRWQEGNVFSCSVMHEALHNHYTQKSLSLSLGK
heavy 2: EVQLVESGGGLVQPGGSLRLSCAASGFTFGSYGMAWVRQAPGKGLEWVSAISGSGDYTNYADSVKRRFTISRDNSKNTLYLQMSSLRAEDTAVYYCAKEKTGTTGYLYSGMDVWGQGTTVTVSSASTKGPSVFPLAPCSRSTSESTAALGCLVKDYFPEPVTVSWNSGALTSGVHTFPAVLQSSGLYSLSSVVTVPSSSLGTKTYTCNVDHKPSNTKVDKRVESKYGPPCPPCPAPPVAGPSVFLFPPKPKDTLMISRTPEVTCVVVDVSQEDPEVQFNWYVDGVEVHNAKTKPREEQFNSTYRVVSVLTVLHQDWLNGKEYKCKVSNKGLPSSIEKTISKAKGQPREPQVYTLPPSQEEMTKNQVSLTCLVKGFYPSDIAVEWESNGQPENNYKTTPPVLDSDGSFFLYSRLTVDKSRWQEGNVFSCSVMHEALHNRFTQKSLSLSPGK
light: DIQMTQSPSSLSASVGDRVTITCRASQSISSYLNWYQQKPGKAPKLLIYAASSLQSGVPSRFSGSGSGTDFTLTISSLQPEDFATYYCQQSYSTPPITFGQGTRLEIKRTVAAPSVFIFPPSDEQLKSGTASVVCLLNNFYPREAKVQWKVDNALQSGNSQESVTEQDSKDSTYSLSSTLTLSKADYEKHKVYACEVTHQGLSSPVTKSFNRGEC
notes: D1 arm from 30027P2, D2 arm from 21520P2, common light chain; also called CD40xCD40 (30027 x 21520)
[1]
  % Blocking at 1 uM mAb: 95%
  IC50: 32 nM
[3]
  100 nM Ag Bound: 56.6 RU
  Kd: 0.163 nM
  koff: 0.000125 s⁻¹
  kon: 769000 M⁻¹ s⁻¹
  t1/2: 92.3 min
